Experimental findings from the supplement of paper PMC5998384 are described below.

For data set [1], the system named is HeLa Kyoto. Briefly: solubility change mitosis vs G1/S (difference of NP-40 vs SDS log2 ratios) (log2 ratio difference); higher = more soluble in mitosis.
The test system of data set [2] is HeLa Kyoto. Briefly: melting temperature (median over replicates), in situ; higher = more thermally stable.
The test system of data set [3] is HeLa Kyoto. Briefly: thermal stability score vs G1/S (z-score of summed log2 fold changes over temperatures); higher = more thermally stable than in G1/S.
For data set [4], the system named is HeLa Kyoto. The data set is described as follows: solubility in G1/S (NP-40 vs SDS abundance) (log2 ratio); higher = more soluble. Particulars: cell cycle stage: G1/S.
[5] abbreviates: cell cycle stage: early G1 (4.5 h after nocodazole release).
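Wherever melting temperature (median over replicates), in situ is given: HeLa Kyoto cells synchronized by double thymidine or nocodazole block, proteins quantified by TMT10plex mass spectrometry, three independent biological replicates.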
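Wherever solubility change mitosis vs G1/S (difference of NP-40 vs SDS log2 ratios) is given: synchronized HeLa Kyoto cells (double thymidine block for G1/S, nocodazole release for mitosis), protein amounts in NP-40 versus SDS lysates quantified by mass spectrometry, three biological replicates.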
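Wherever solubility in G1/S (NP-40 vs SDS abundance) is given: HeLa Kyoto cells arrested at G1/S by double thymidine block, proteins quantified by TMT10plex mass spectrometry in mild NP-40 versus SDS extracts, three biological replicates.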
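Wherever thermal stability score vs G1/S (z-score of summed log2 fold changes over temperatures) is given: synchronized HeLa Kyoto cells, proteins quantified by TMT10plex mass spectrometry, three biological replicates, mitosis taken 0.5 h after nocodazole release, G1/S directly after double thymidine block.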

As to “MAVPGVGLLTRLNLCARRRTRVQRPIVRLLSCPGTVAKDLRRDEQPSGSVETGFEDKIPKRRFSEMQNERREQAQRTVLIHCPEKISENKFLKYLSQFGPINNHFFYESFGLYAVVEFCQKESIGSLQNGTHTPSTAMETAIPFRSRFFNLKLKNQTSERSRVRSSNQLPRSNKQLFELLCYAESIDDQLNTLLKEFQLTEENTKLRYLTCSLIEDMAAAYFPDCIVRPFGSSVNTFGKLGCDLDMFLDLDETRNLSAHKISGNFLMEFQVKNVPSERIATQKILSVLGECLDHFGPGCVGVQKILNARCPLVRFSHQASGFQCDLTTNNRIALTSSELLYIYGALDSRVRALVFSVRCWARAHSLTSSIPGAWITNFSLTMMVIFFLQRRSPPILPTLDSLKTLADAEDKCVIEGNNCTFVRDLSRIKPSQNTETLELLLKEFFEYFGNFAFDKNSINIRQGREQNKPDSSPLYIQNPFETSLNISKNVSQSQLQKFVDLARESAWILQQEDTDRPSISSNRPWGLVSLLLPSAPNRKSFTKKKSNKFAIETVKNLLESLKGNRTENFTKTSGKRTISTQT [MTPAP]”, in the data set with HeLa Kyoto [1], the “solubility change mitosis (log2)” value was 0.114. Further, the melting temperature in the data set with HeLa Kyoto [2] (cell cycle stage: G1/S) worked out at 51 °C; in the data set with HeLa Kyoto [2] (cell cycle stage: mitosis), 49.8 °C. Also, the thermal stability score was 0.65 in the data set with HeLa Kyoto [3] (setting [5]) and 1.8 in the data set on HeLa Kyoto [3] (cell cycle stage: mitosis). Further, the “solubility in G1/S (log2)” value in the data set with HeLa Kyoto [4] was -0.331.

Take “MAVQESAAQLSMTLKVQEYPTLKVPYETLNKRFRAAQKNIDRETSHVTMVVAELEKTLSGCPAVDSVVSLLDGVVEKLSVLKRKAVESIQAEDESAKLCKRRIEHLKEHSSDQPAAASVWKRKRMDRMMVEHLLRCGYYNTAVKLARQSGIEDLVNIEMFLTAKEVEESLERRETATCLAWCHDNKSRLRKMKSCLEFSLRIQEFIELIRQNKRLDAVRHARKHFSQAEGSQLDEVRQAMGMLAFPPDTHISPYKDLLDPARWRMLIQQFRYDNYRLHQLGNNSVFTLTLQAGLSAIKTPQCYKEDGSSKSPDCPVCSRSLNKLAQPLPMAHCANSRLVCKISGDVMNENNPPMMLPNGYVYGYNSLLSIRQDDKVVCPRTKEVFHFSQAEKVYIM [MAEA]”: the “solubility change mitosis (log2)” value in the data set with HeLa Kyoto [1] is -0.0756. Also, the melting temperature amounted to 50.2 °C in the data set on HeLa Kyoto [2] (cell cycle stage: G1/S) and 49.3 °C in the data set on HeLa Kyoto [2] (cell cycle stage: mitosis). Besides, the thermal stability score in the data set with HeLa Kyoto [3] (setting [5]) was -0.838; in the data set with HeLa Kyoto [3] (cell cycle stage: mitosis) it was -0.615. Also, the “solubility in G1/S (log2)” value with HeLa Kyoto [4] was -0.0777.

For “MAVRALKLLTTLLAVVAAASQAEVESEAGWGMVTPDLLFAEGTAAYARGDWPGVVLSMERALRSRAALRALRLRCRTQCAADFPWELDPDWSPSPAQASGAAALRDLSFFGGLLRRAACLRRCLGPPAAHSLSEEMELEFRKRSPYNYLQVAYFKINKLEKAVAAAHTFFVGNPEHMEMQQNLDYYQTMSGVKEADFKDLETQPHMQEFRLGVRLYSEEQPQEAVPHLEAALQEYFVAYEECRALCEGPYDYDGYNYLEYNADLFQAITDHYIQVLNCKQNCVTELASHPSREKPFEDFLPSHYNYLQFAYYNIGNYTQAVECAKTYLLFFPNDEVMNQNLAYYAAMLGEEHTRSIGPRESAKEYRQRSLLEKELLFFAYDVFGIPFVDPDSWTPEEVIPKRLQEKQKSERETAVRISQEIGNLMKEIETLVEEKTKESLDVSRLTREGGPLLYEGISLTMNSKLLNGSQRVVMDGVISDHECQELQRLTNVAATSGDGYRGQTSPHTPNEKFYGVTVFKALKLGQEGKVPLQSAHLYYNVTEKVRRIMESYFRLDTPLYFSYSHLVCRTAIEEVQAERKDDSHPVHVDNCILNAETLVCVKEPPAYTFRDYSAILYLNGDFDGGNFYFTELDAKTVTAEVQPQCGRAVGFSSGTENPHGVKAVTRGQRCAIALWFTLDPRHSERDRVQADDLVKMLFSPEEMDLSQEQPLDAQQGPPEPAQESLSGSESKPKDEL [P3H1]”, the “solubility change mitosis (log2)” value with HeLa Kyoto [1] was -0.0228. Besides, the melting temperature with HeLa Kyoto [2] (cell cycle stage: G1/S) worked out at 53.2 °C; with HeLa Kyoto [2] (cell cycle stage: mitosis), 54.3 °C. In addition, the thermal stability score with HeLa Kyoto [3] (setting [5]) was 1.77; in the data set on HeLa Kyoto [3] (cell cycle stage: mitosis), 3.07. Further, the “solubility in G1/S (log2)” value in the data set on HeLa Kyoto [4] is -0.0649.

In the case of “MAVSESQLKKMVSKYKYRDLTVRETVNVITLYKDLKPVLDSYVFNDGSSRELMNLTGTIPVPYRGNTYNIPICLWLLDTYPYNPPICFVKPTSSMTIKTGKHVDANGKIYLPYLHEWKHPQSDLLGLIQVMIVVFGDEPPVFSRPISASYPPYQATGPPNTSYMPGMPGGISPYPSGYPPNPSGYPGCPYPPGGPYPATTSSQYPSQPPVTTVGPSRDGTISEDTIRASLISAVSDKLRWRMKEEMDRAQAELNALKRTEEDLKKGHQKLEEMVTRLDQEVAEVDKNIELLKKKDEELSSALEKMENQSENNDIDEVIIPTAPLYKQILNLYAEENAIEDTIFYLGEALRRGVIDLDVFLKHVRLLSRKQFQLRALMQKARKTAGLSDLY [TSG101]”, the “solubility change mitosis (log2)” value in the data set with HeLa Kyoto [1] was -0.0618. The melting temperature came out at 50.7 °C in the data set on HeLa Kyoto [2] (cell cycle stage: G1/S) and 50.2 °C in the data set on HeLa Kyoto [2] (cell cycle stage: mitosis). Moreover, the thermal stability score in the data set with HeLa Kyoto [3] (setting [5]) is -0.385; with HeLa Kyoto [3] (cell cycle stage: mitosis), -0.589. Besides, the “solubility in G1/S (log2)” value in the data set with HeLa Kyoto [4] turned out to be 0.617.

As to “MAVSVTPIRDTKWLTLEVCREFQRGTCSRPDTECKFAHPSKSCQVENGRVIACFDSLKGRCSRENCKYLHPPPHLKTQLEINGRNNLIQQKNMAMLAQQMQLANAMMPGAPLQPVPMFSVAPSLATNASAAAFNPYLGPVSPSLVPAEILPTAPMLVTGNPGVPVPAAAAAAAQKLMRTDRLEVCREYQRGNCNRGENDCRFAHPADSTMIDTNDNTVTVCMDYIKGRCSREKCKYFHPPAHLQAKIKAAQYQVNQAAAAQAAATAAAMTQSAVKSLKRPLEATFDLGIPQAVLPPLPKRPALEKTNGATAVFNTGIFQYQQALANMQLQQHTAFLPPVPMVHGATPATVSAATTSATSVPFAATATANQIPIISAEHLTSHKYVTQM [MBNL1]”, the “solubility change mitosis (log2)” value in the data set on HeLa Kyoto [1] stood at 0.353. The values for the melting temperature in the data set with HeLa Kyoto [2] (cell cycle stage: G1/S) and in the data set on HeLa Kyoto [2] (cell cycle stage: mitosis) were 52.3 °C and 52.2 °C, respectively. Also, the results for the thermal stability score in the data set with HeLa Kyoto [3] (setting [5]) and in the data set on HeLa Kyoto [3] (cell cycle stage: mitosis) were -3.27 and -3.37, respectively. For the same sequence, the “solubility in G1/S (log2)” value in the data set with HeLa Kyoto [4] was 0.11.

Consider “MAVTDSLSRAATVLATVLLLSFGSVAASHIEDQAEQFFRSGHTNNWAVLVCTSRFWFNYRHVANTLSVYRSVKRLGIPDSHIVLMLADDMACNPRNPKPATVFSHKNMELNVYGDDVEVDYRSYEVTVENFLRVLTGRIPPSTPRSKRLLSDDRSNILIYMTGHGGNGFLKFQDSEEITNIELADAFEQMWQKRRYNELLFIIDTCQGASMYERFYSPNIMALASSQVGEDSLSHQPDPAIGVHLMDRYTFYVLEFLEEINPASQTNMNDLFQVCPKSLCVSTPGHRTDLFQRDPKNVLITDFFGSVRKVEITTETIKLQQDSEIMESSYKEDQMDEKLMEPLKYAEQLPVAQIIHQKPKLKDWHPPGGFILGLWALIIMVFFKTYGIKHMKFIF [PIGK]”, for which, in the data set on HeLa Kyoto [1], the “solubility change mitosis (log2)” value was -0.0814. For the same sequence, the melting temperature in the data set with HeLa Kyoto [2] (cell cycle stage: G1/S) and in the data set on HeLa Kyoto [2] (cell cycle stage: mitosis) was 53.5 °C each time. Besides, the thermal stability score in the data set with HeLa Kyoto [3] (setting [5]) worked out at 1.4; in the data set with HeLa Kyoto [3] (cell cycle stage: mitosis) it was 0.424. Moreover, in the data set with HeLa Kyoto [4], the “solubility in G1/S (log2)” value is -0.134.
